Kd data for two molecules are collected here from patent US20130110249A1 (UNIVERSITY OF ROCHESTER, published 2013).

The target in assay [1] is T1, native Gmd of S. aureus Xen29 (Staphylococcus aureus, UniProt P0C5Z8 776-1255, limits assumed).
T1 construct: domain: glucosaminidase (Gmd) subunit of autolysin
T1 sequence (looked up): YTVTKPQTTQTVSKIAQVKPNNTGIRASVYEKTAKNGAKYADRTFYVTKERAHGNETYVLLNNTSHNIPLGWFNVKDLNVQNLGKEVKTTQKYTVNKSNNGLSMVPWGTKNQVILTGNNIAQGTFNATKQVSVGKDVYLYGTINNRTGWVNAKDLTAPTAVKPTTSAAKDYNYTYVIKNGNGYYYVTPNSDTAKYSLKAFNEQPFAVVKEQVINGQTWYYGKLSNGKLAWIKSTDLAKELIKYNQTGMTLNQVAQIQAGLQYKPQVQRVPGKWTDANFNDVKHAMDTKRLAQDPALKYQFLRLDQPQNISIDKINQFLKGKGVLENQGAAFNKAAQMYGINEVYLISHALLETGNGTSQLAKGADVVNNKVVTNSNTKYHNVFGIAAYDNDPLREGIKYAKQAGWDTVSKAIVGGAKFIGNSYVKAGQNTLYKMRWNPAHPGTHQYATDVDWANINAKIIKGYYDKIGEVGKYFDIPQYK
Description: estimate from the dose dependence of the Xen29 growth (light scattering) assay, assuming about ten times the Kd is required.

In assay [2] the target is T2, recombinant His-glucosaminidase (His-Gmd) of Staphylococcus aureus autolysin (Staphylococcus aureus, UniProt A7X0T9 775-1254).
T2 construct: also called Gmd-His; recombinant Gmd
T2 sequence: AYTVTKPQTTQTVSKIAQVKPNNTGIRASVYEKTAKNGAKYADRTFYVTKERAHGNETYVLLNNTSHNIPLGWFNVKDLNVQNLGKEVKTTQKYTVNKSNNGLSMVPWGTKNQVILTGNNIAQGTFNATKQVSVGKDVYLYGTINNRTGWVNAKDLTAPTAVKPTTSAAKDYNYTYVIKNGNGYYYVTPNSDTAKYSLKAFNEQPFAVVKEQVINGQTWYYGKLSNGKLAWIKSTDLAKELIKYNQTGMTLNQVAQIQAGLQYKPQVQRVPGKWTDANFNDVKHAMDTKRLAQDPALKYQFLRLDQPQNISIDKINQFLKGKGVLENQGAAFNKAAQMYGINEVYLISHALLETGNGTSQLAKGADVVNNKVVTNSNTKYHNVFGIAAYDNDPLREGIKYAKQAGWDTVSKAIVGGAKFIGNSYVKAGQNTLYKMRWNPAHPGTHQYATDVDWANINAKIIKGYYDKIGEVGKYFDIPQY
Description: method not stated; hybridomas screened by ELISA and western dot-blot. (In general: In an ELISA, binding on a coated surface is turned into a signal by an enzyme label.)

B1: anti-Gmd monoclonal antibody 1C11 (antibody, V domains shown)
VH: QIQLVQSGPELKKPGETVKISCKASGYTFTTYGMSWVNQAPGKGLKWMGWINTYSGVPTYADDFKGRFVFSLETSASTAYLQINNLKNEDTATYFCAREEYSSGYAAWFPYWGQGTLVTVSA
VL: DIVLTQSPATLSVTPGDSVSLSCRASQSISNNLHWYQQKSHESPRLLIEYASRSISGIPSRFSGGGSGTDFTLSINSVESEDFGLYFCQQSNSWPLTFGAGTKLELK
notes: also called mAb 1C11; mouse 1C11
For the molecule B1, the values for the dissociation constant Kd in assay [1] and in assay [2] were approximately 1 nM and not above 1 nM, respectively.

B2: anti-Gmd monoclonal antibody 3A8 (antibody, V domains shown)
VH: EVQLQESGGGLVQPGGSMKLSCAASGFTFSDAWMDWVRQSPEKGLEWVAEIKDKTNNHATYYAESVKGRFTISRDVSKSRVFLQMNSLRPEDTGIYYCTSGPYFDYWGQGTTLTVSS
VL: DIVMTQSHKFMSTSVGDRVSITCKASQDVSTAVAWYQQKPGQSPKLLIYWTSTRHTGVPDRFTGSGSGTDFTLTISSVQAKDLALYYCQQHYTTPYTFGGGTKLEIK
notes: also called mAb 3A8; hybridoma 3A8
Turning to B2, the Kd (as a rule, the constant that tells how readily two partners part at equilibrium) is approximately 1 nM in assay [1] and not above 1 nM in assay [2].
